Test results as given in a protein production outcome set (Wang et al. 2014).

Assay: label from the status in PepcDB records

| Sequence | protein production |
| --- | --- |
| MELTILILLLPFLSFLILGIGGKWMSHRTAGAIGTLILGAVVVLSYVTAFQYFSAPRLEDGTFATLIPYNFTWLPFTETLRFDLGILLDPISVMMLIVISTVSLMVHIYSFGYMKGETGFQRYYAFLSLFTMSMLGLVVATNIFQMYLFWELVGVSSYLLIGFYYTKPAAIAASKKAFIVTRFADLGFLIGILIYGYYGGTFGFTPDTVSLISGGASMLPLALGLMFIGGAGKSAMFPLHIWLPDAMEGPTPVSALIHAATMVVAGVYLVARMFPLFIAYAPDTLHMIAWVGAFTAFYAASVACVQSDIKRVLAFSTISQIGFMMVALGVCTSMDPHHGGLGYMASMFHLFTHAMFKALLFLGAGSIIHAVHSNEMSAMGGLRKYMPITHWTFLIACLAIAGIPPFSGFFSKDEILAACFQYSPAMGWVMTVIAAMTAFYMFRLYYGIFWGAEPPRASSHSDHSTPHGNLEAAPCRPHESPLAMTFPLIFLAVVTCLAGFIPFGHFISSNGESYSIHLDLSVAVTSVVIAIISIGIATWMYKNAKQPVANALAKRFNGLWTAAYHRFYIDDIYQFITHKIIFRCISTPIAWFDRHVVDGFFNFLAWATNTTSDEIRGLQSGQVQQYAYVFLCGALALILLLVL | failed |
| MEMDTMFLAILIGAGLIGISVVTSLISFRVGAPLLLVFLGVGLLAGQDGIGGIVFNDSGTAYFIGSLALAVILFDSGFSTRLQTFRLAAAPSIVLATLGVALTTALVAIPSHSLLGLSWEESALMGAVVGSTDAAAVFFLLRVGGILIRDRVRATLEVESSTNDPMAIFLTITLVELASAGGFSGEALSWGLGLAFVRQMGLGLLCGWIGGHLLVVGINRLRLEPALYPILGLALALFLFAAVSMVDGSGFLAIYVAGMVMGNRKMRGGPALRRFQEALTWLAQMTMFLTLGLFASPSTFIDVALPSVLIGLFLVFVARPVAVWLCLLPFGYDRNETAFVAWVGLRGAVSILLAILPIAAGLEHAQEMFNAAFIVVVTSLLLQGWTIRPMARWLGLVVPPRLGPVDKVELQLPYGGDHELLVYRIAKGSPVAEGERIPRWARPSLVVRDGRSMKVLDSGRPQPGDHVYIFSAPRHGALLDRLFARPTALSPADEAYFGDFSLDASRTMGELATLYGIKVPEGAQDTAVGEWLTQRLGGAPARGDRVVLPPIEIIVREMDNSTDVIRTIGLSLDPGEGRPRRVPMFHNARDIIGSVRDWRAARRRFAAKNS | failed |
| MEMEMINIRVLRFEPGVDEKPHLESYEIPSKEKMKVLDALQLINKIHGANIAFRSSCRAGQCGSCAVKMNGEVVLACRAEVEDGAIIEPIDLPVIKDLMVDRGEIEEKVKSMQLYLQASSEGIQRIRPEDYLDSKKLRGCIECFSCISSCPVIKESSEYAGPYFMRYLSKFAFDPRDTGDRAQEGVDKGLYCCTTCGKCAEVCPKELNVPGDAIEKLRAMACREGSGPLDAHRRIKKLISETGRSVDRIKDGFIESVGKNPGSRIGFFTGCLVDYRMPEVGMALLRVLREHGFDVDVPEGQVCCGSPMIRTGQVDIVEDLVEKNRKALRDYDTIITVCAGCGATLKKDYPRYGVKLNVLDISEFLADRIDTIKMKPVNMRVTYHDPCHLKRGQGVEFEPRKILRKIPGLEFVEMEKPDQCCGSGGGVKSGKPEVAEALGRKKADMIRELDVDAVVTICPFCQLHIRDSLDLAGLENVRVMNILELLDLAYSD | failed |
| MEMKKSGRSLKMIFTQYFATVSLAFIALLCLIWAIFVISLNTKLIIPANQTEQELHRLEDKIEKADTFQAKRLPKDTAYLLMTKDGKIKESNMSKNLQQQALASYSGNAVSPNDYGYFMVFKRQKEVCIVNYRLEAHYSVAWMNKYLPNVSLLGLILTGLGVLLVFTLVTILFARRLQRQLSPIIAATQKIAKQNLDFTVQSSDIKEFNQVLNSLDTMRAALRDSLMHSWQVEQEKQNQIAALTHDIKTPLTVIKGNTELLKQTELSETQEAFVGYSLKNIGQVETYLQQLSYLAKNSQLQDFHPEKIKVAAFLEELSQNSQALAATKDIKIQFVNNLSDAQLTTYWDKGLLARALMNIISNAVEHSPQGSQLQLVCHLENELFQLTCLDSGQGFSREALDKAKMQFFQDDTSRHDRKHSGLGLTIADNIIRLHGGSLSLSNDAKTASGRVDVVLPLAKM | failed |
| MEMMLGKTYREMVFWMAWIIIPFLMEIVPALGGFIILLRKRLSIKDKAFSGKLPQITIIVPVYNSEDTLKGCIESIYNSDYPSEFIDVMLVDNQSSDNSFKIFTRCQKEFDGLSLRYMNSKQGKSKALNMALFNSSGKYIIHIDSDGKLHKDAIKNMVTRFEGNPHVHCMTGVILTDKELIEKTKGSFFKLLRKCEFFEYAQAFLAGRNFESEVGSIYTLSGAFSAFRKSTILKTQLYNSETVSEDTQITFQVKKLLNQKVYLCENALFFVDPIEGFNKLYTQRQRWQRGELEVSHMFLRDGLKFGKGFVSDFMVRTLMYDHTFAFPRMIWYFALIFLVFMNYPIYLVVGSVAVIYLLYSLSAFLFYLNVISYLKKYKEVRSYYAKKFYLIFLMPMYNFGVFWIRFCGIINSIQLQGNWKTLNLTDEWRNFLGVFKRDFSVVFKVLNKLRQVVNNE | failed |
| MEMNVKTNSSPTAPKPSKQTGWRIWWSLLRPHTLTAAFVPVFIGTAYSMQVGGINQIHLPLFLMMLLACLLIQAATNMFNEYFDYKRGLDHEGSVGIGGAIVRDGIQPKTVLNLAFGFFGIAILLGVYICINSSWWLAAIGLVCMAVAYLYTGGPLPIAYTPFGELTAGLFMGVIIIGISFFIQTGTVTSEVILLSIPSSILIGAILLANNIRDLDGDKENGRKTLAILVGRERAVGVLASMFIVSYIWTIALIIVGIVSPWMLIVFLSAPKAFKATKGFIGKSIPMEMVPAMIATAKTNTIFGFLMGIGLLLGYFL | failed |
| MEMTKVTGKFDVKLTPENAYATGVGGVNLGRMALDKTFYGELEARSQGEMLSAMTAVKGSAGYVAIEQVVGKLCGRQGSFVLQHFGIMTDGQNRLHLEVVPHSGAGELTGLYGTMAISIENGQHFYEFSFCFEPASEVEG | not failed |
| MENAPLLFQLPDDDTLYQALLARDPAYEGFAFVGVKSTGVFCRLTCAARKPKRENTVFFGSIKGCVEAGFRACLRCRPLERAGVQEPWVQTLLEQLGRDPERRWYEDDLVAQGLDPSTVRRAFKRYFGVTFLEMARLRRMGQGMQQLASGEPVIEAQISAGFDSDSGFRHAFSRLAGQPPSNLRGRELLKVDWLQTPIGVMLAVADAQVLHLLEFFDRPALANELQNLQKSSGSSIGFGRFAPIDQIEAELQRYFAGEAVHFATPLAMSASPFTRTVWQALRAIPLGTTCSYAEVARQVGSPSAVRAVARANAANQISIVIACHRVIGADGSLTGYGGGLWRKRWLLEHERRLHHLQGASASGL | failed |
| MENDKHNNPKTIFIPDDIAEGIFHHLPIKSLARFKVLSKKWTSMIESTYFSHKRLIRTGLPTPNMKFLHISQHFTANFVEEYSNSITFLLETFSRDDQNNRKTFDESQNKTIQVLGSCDGLVLLRIHDDFRSIYLINPTTKEHMKLSPEFMQWPFTLSYLTPAMANKPWRQLSQSVLDYDISVKRMPSLAGFGKDIVKKSYKVVLIYTRYEIHDHEFKAKVLSLDNGEQRDVGFYDIHHCIFCDEQTSVYANGSLFWLTLKKLSQTSYQLLAIDLHTEEFRWILLPECDTKYATNIEMWNLNERLCLSDVLESSNLVVWSLHQEYPTEKWEKIYSIKIDVIRTNQLHEKFWMLGLAAAYFSNIRNRQDQVSFFRQRTISYLPTMISPSNLML | failed |
| MENEKLPYISVIIIAYNRKEFLLDAIKSALNQTLDREYYEIIVIKNFQDDTIDNFIKENNIKGIISENKSLGGKISEALYVSKGEIVSFLEDDDLFFPNKLREVYDIFISNPNLVYYHNNFIKTNNRLFEIDYSENKKNKKIFLKLIELNNIKTINYLISKKLIAFNMSAITIRKSYFNDCLDILENIRIAHDMCFFFCLSGKSDTSKEILIYDKPLSIWFIHNSWSNTSCDLEIKNFKNKNFTIAKETLNAIVYIFNEFCIKNNLYNFYDNKQPLCDYLKLTISARKSQLYLLNEYEININDIKLFFKFVTMRKSIYLSGAFILVLFGKFISKKLSTKIFLYISFLLNTI | failed |
| MENETGGKDREVVEAVTNSEPGNGDGFAKKGDSYDDKLPSENVDKHMENEANEKEKEEDGAADELCALQDALETTLFQHLSNYAQKQMLQKLRSLRAKERKELSGEWKSLLAQEALLKSKKYSFSAELANATFHTWEEETRRMVL | not failed |
| MENIPFLRASTVPVIEYLDELKEIDASHIYTNYGPINQRFEQTIMSGFFQNRGAVTTVANATLGLMAAIQLKKRKKGKYALMPSFTFPATPLAAIWCGLEPYFIDISIDDWYMDKTVLWDKIEELKEEVAIVVPYATFGSWMNLEEYEELEKKGVPVVVDAAPGFGLMNGGMHYGQDFSGMIIYSFHATKPFGIGEGGLIYSKNEEDIQRIKRMGNFGFDTNRECTMMGFNCKMSEYAAAIGIATMKKWDDKLKERTRISEWYKQLLQSNGLMKKGWQLQKTEAVIQQFMPILCPEEVRNKQVIEDLKKQKIEARLYFSPSCHQQVLFRNYKSTDLTRTNKIAKRIVSLPLWEGMTKEIVEQIVICLGQKVVSADE | not failed |
| MENIQDSVSEYTKDSAQKIDTDALYHEQMLKALYAGFGIRFCAFIIDLLIIFGVHSLILKPIYHFTNLDSAKLWIDYFSVGHLLDALVFYLYFVLMTKYFKQTLGKMICNIRVERMDRQQLTWTDVLFREWIGRIISGVFANLPYLVTIFTKKHRGIHDYFADTVVIKNKFEKFFYLK | failed |
| MENKEISYEIIDFSGETNVQFRTSVDPGSYIPTHWHRAIEIIYMQEGSLDVIVESESFTIYKGDCILVNGNVLHSTKCTAPNTAILLQIPLNFMEKYIPNLGQLIFLWDYRTEDPVKKTKLMMLKTTLEQLQVINDIQPDGYLLRFNSLIFELMFQLYHNFSVQVFPQDINHKKKEMDRLDP | not failed |
| MENKYLVSIIVPVHNTADYLHKCIESLRSQTLQQIEIILVDNLSVDGSSEICDEYAKIDKRIKVLHLSIAGLSIARNAGMRIASAPYIGFVDSDDYVEPAMFEKMLDAMVQSDAEIAYCNFLLEYEFKPNESPYRNSGDIVIRDPKNVLQDMMMEKVSCSACTKLYKSGFLTSLQFPEGKNYEDRLVMYEWVALCKKVVWVDSPFYHYVERQTSICHTMSPMNLYHYFLAEYARMRFMEKYSLFEEEDLFKIRTRLIGTCLTIFKEILLKVNLREFKEPVKDMRQKMKEIAALPEDTYELKYRRRVRKIAYHWHLYYLTHFLFKKGGDSLEHHHHHH | failed |
| MENMENDENIVVGPKPFYPIEEGSAGTQLRKYMERYAKLGAIAFTNAVTGVDYSYAEYLEKSCCLGKALQNYGLVVDGRIALCSENCEEFFIPVIAGLFIGVGVAPTNEIYTLRELVHSLGISKPTIVFSSKKGLDKVITVQKTVTTIKTIVILDSKVDYRGYQCLDTFIKRNTPPGFQASSFKTVEVDRKEQVALIMNSSGSTGLPKGVQLTHENTVTRFSHARDPIYGNQVSPGTAVLTVVPFHHGFGMFTTLGYLICGFRVVMLTKFDEETFLKTLQDYKCTSVILVPTLFAILNKSELLNKYDLSNLVEIASGGAPLSKEVGEAVARRFNLPGVRQGYGLTETTSAIIITPEGDDKPGASGKVVPLFKAKVIDLDTKKSLGPNRRGEVCVKGPMLMKGYVNNPEATKELIDEEGWLHTGDIGYYDEEKHFFIVDRLKSLIKYKGYQVPPAELESVLLQHPSIFDAGVAGVPDPVAGELPGAVVVLESGKNMTEKEVMDYVASQVSNAKRLRGGVRFVDEVPKGLTGKIDGRAIREILKKPVAKM | not failed |
